Data as given in publication doi:10.1101/2021.03.17.435802 (bioRxiv, 2021).

B1: REGN10933 (antibody, V domains shown)
VH: QVQLVESGGGLVKPGGSLRLSCAASGFTFSDYYMSWIRQAPGKGLEWVSYITYSGSTIYYADSVKGRFTISRDNAKSSLYLQMNSLRAEDTAVYYCARDRGTTMVPFDYWGQGTLVTVSS
VL: DIQMTQSPSSLSASVGDRVTITCQASQDITNYLNWYQQKPGKAPKLLIYAASNLETGVPSRFSGSGSGTDFTFTISGLQPEDIATYYCQQYDNLPLTFGGGTKVEIK
B2: LY-CoV555 (antibody, V domains shown)
VH: QVQLVQSGAEVKKPGSSVKVSCKASGGTFSNYAISWVRQAPGQGLEWMGRIIPILGIANYAQKFQGRVTITADKSTSTAYMELSSLRSEDTAVYYCARGYYEARHYYYYYAMDVWGQGTAVTVSS
VL: not shown

Target: SARS-CoV-2 S1 WT (in-house) (SARS-CoV-2, UniProt P0DTC2)
Experiment: SPR

Row | Binder | binding result
1 | B1 | binds
2 | B2 | binds
